Laboratory results as given in the supplement of paper PMC9170038.

Legend:
MS2 coat protein [1] = assay: apparent KD of MS2 coat protein, switch ON state; designed switch direction (-1 OFF switch, 1 ON switch): -1; higher = weaker reporter binding; settings: FMN input: 0 or 200 uM; Eterna round: R93 (includes R88 designs)
Summary of the method: (§1)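 Titrations with SNAP-549-labelled MS2 coat protein ran in twofold steps from 0.7 or 1.5 nM to 3 µM, each step taking 0.8–1.5 h at the start and 10–20 min toward the end. The targets were designed RNA switches transcribed on-chip from Illumina sequencing clusters, held in 100 mM Tris-HCl pH 7.5, 80 mM KCl, 4 mM MgCl2, without or with constant ligand. Apparent KD was taken per design as the median of normalised cluster binding-curve fits.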

MS2 coat protein [2] = assay: apparent KD of MS2 coat protein, switch OFF state (with FMN for OFF switches, without FMN for ON switches); designed switch direction (-1 OFF switch, 1 ON switch): -1; higher = weaker reporter binding; settings: FMN input: 0 or 200 uM; Eterna round: R93 (includes R88 designs)
Summary of the method: as §1

Sequence	apparent KD of MS2 coat protein (MS2 coat protein [1])	apparent KD of MS2 coat protein (MS2 coat protein [2])
AGCUAGUCAGGAUAUACGAACAAGACAAAAGACGUGAAGGGACAUGAGGAUCACCCAUGUAGAAGGGACUAGCA [74%, Web mod - With 2 less U's]	0.0262 µM	0.0713 µM
AGCUAGUCAGGAUAUACGAACAGGUCAAAAGACCUGAAGGGACAUGAGGAUCACCCAUGUAGAAGGGACUAGCA [Mat - Exclusion 2 - JL mod - D28]	0.0258 µM	0.131 µM
AGCUAGUCAGGAUAUACGAACAUGUCAAAAGACGUGAAGAAACAUGAGGAUCACCCAUGUAGAAGGGACUAGCA [Mat - Exclusion 2 - JL-Eli mod - D50]	0.0167 µM	0.0124 µM
AGCUAGUCAGGAUAUACGAACAUGUCAGAAGACGUAAGGGAACAUGAGGAUCACCCAUGUAGAAGGGACUAGCA [Diamond 48]	0.0331 µM	0.075 µM
AGCUAGUCAGGAUAUACGCAAACGAACGAAGCAGAGAAGGGACAUGAGGAUCACCCAUGUAGAAGGGACUAGCA [Diamond 31]	0.0288 µM	0.0849 µM
AGCUAGUGAGGAUAUGCGAACAUGUCAAAAGACGUGAAGGGACAUGAGGAUCACCCAUGUAGAAGGCACUAGCA [JL 74% mod 3]	0.0264 µM	0.0363 µM
AGCUCGGUAGGAUAUACAAAAUGAUUGCGAAAGCAAUCAACACAUGAGGAUCACCCAUGUAGAAGGACCGAGCA [Mat - Exclusion 2 - JL-Eli mod - D42]	0.0152 µM	0.02 µM
AGGAAACAUGAGGAUCACCCAUGUAAGGAUAUGAACGAAAUAAAAUAAAAAUAAAAGUUCAGAAGGUACAAAAA [Mat - Exclusion 1 - Eli mod - D8]	0.0318 µM	0.0393 µM
AGGAAACAUGAGGAUCACCCAUGUCAGGAUAUUGAAAAGAAAAGAAAAGAAAGAAGAACAAGAAGGGACAAGAA [Mekh]	0.0272 µM	0.0206 µM
AGGAAACAUGAGGAUCACCCAUGUGAGGAUAUGAGAAAGAAAAGAAAAGAAAGAAGAAUCAGAAGGCACAAGAA [Raneb]	0.0428 µM	0.0466 µM
AGGGAGUCAGGAUAUCGGAAAAAAAAACAACGAAAAAAAGACGAGAAGGGACAUGAGGAUCACCCAUGUAAGAA [milkweed 16]	0.0414 µM	0.0235 µM
AGGUUGUCAGGAUAUGCGUGAAGAAUAAAACAAAUAACAACGCAGAAGGGACAUGAGGAUCACCCAUGUUAAGA [May 47]	0.0398 µM	0.0483 µM
AGUACUACAGGAUAUACGAGGGAGGUCCACGUGAACCUUAUACAUGAGGAUCACCCAUGUAGAAGGGUAGUACA [Ex2 Design 108: Super Stable 8]	0.0509 µM	0.0184 µM
AGUCAGAGAGGAUAUACAUAGGAAAAAAAAGUAAGAUCCCUACAUGAGGAUCACCCAUGUAGAAGGCUCUGACA [Ex2 Design 140: Sub-opt 4]	0.141 µM	0.0875 µM
AGUCAGAGAGGAUAUACAUGGAAAAAAAAAGUAAGAUCCCUACAUGAGGAUCACCCAUGUAGAAGGCUCUGACA [Ex2 Design 138: Sub-opt 2]	0.0275 µM	0.0132 µM
AGUCGGCGAGGAUAUACAUGAGGAUCACCCAUGUGAGAGAAAAAAGUGAGCAAGAAAUGUAGAAGGCGCUGACA [JL Lego Mod 3]	0.156 µM	0.0619 µM
AGUCGGCGAGGAUAUACAUGAGGAUCACCCAUGUGAGAGAAAAAGGUGAGUCAGAAAAGUAGAAGGCGCUGACA [JL Lego Mod 5]	0.166 µM	0.0474 µM

Sequence	apparent KD of MS2 coat protein (MS2 coat protein [1])	apparent KD of MS2 coat protein (MS2 coat protein [2])
AGUCGGCGAGGAUAUACAUGAGGAUCACCCAUGUGAGAGAAUAAAGUGAGUUAGACAAGUAGAAGGCGCUGACA [JL Lego Mod 10]	0.0405 µM	0.226 µM
AGUCUGAGAGGAUAUACAUGGAAAAAAAAAGUUAGAUCCCUACAUGAGGAUCACCCAUGUAGAAGGCUCUGACA [Ex2 Design 149: Sub-opt 13]	0.0458 µM	0.0152 µM
AGUUGGCGAGGAUAUACAUGAGGAUCACCCAUGUAAAAUAAAUAAAAAAUAAGGGAAAGUAGAAGGCGCUGACA [73%, Moding Norbert Elias, 14]	0.0465 µM	0.112 µM
AGUUGGCGAGGAUAUACAUGAGGAUCACCCAUGUGAGAGAAAUAAGUGAGAAAGAAAAGUAGAAGGCGCUCACA [JL Lego Mod 17]	0.068 µM	0.0474 µM
AUAAACAGAGGAUAUACACAAAAUAAAGAAAAUAAAGAAACACAUGAGGAUCACCCAUGUAGAAGGCUGGAAAA	0.0233 µM	0.0227 µM
AUCUUGUCAGGAUAUGACUACAUAAAAAAAAAAAAAUGUAGUCAGAAGGGACAUGAGGAUCACCCAUGUACCAA [HSL_Exclusion 4 64% 2]	0.0291 µM	0.0241 µM
AUGGUACAUGAGGAUCACCCAUGUCAGGAUAUCGGCUGUGACAUGAAAAAAAUGUUAGUGAGAAGGGACUGUAA [EX1 Malc#18 Mod 4 - Jieux - Exclusion 1]	0.0854 µM	0.102 µM
CAACAGUCAGGAUAUGCAAAAAAAACGCAACGCAAAAAAAAGCAGAAGGGACAUGAGGAUCACCCAUGUUGUCG [Exclusion4-03]	0.0295 µM	0.0229 µM
CAAGGUGGAGGAUAUACAUGAGGAUCACCCAUGUAAGGACAAUAAAUAAGAUGAAGAAGUAGAAGGCCACUCAA [e3-3]	0.0415 µM	0.0421 µM
CACGGGUUAGGAUAUGCAUGGUGAAAAGACGCGAUCCUUAGACAUGAGGAUCACCCAUGUAGAAGGAACGCGAU [Reonisar]	0.0172 µM	0.015 µM
CAGUACUGAGGAUAUACAUGAGGAUCACCCAUGUGGUCCAGCUAGGAAACUAGCACGUGUAGAAGGCAGUACUG [Ex3: 840]	0.0295 µM	0.02 µM
CCGAGACAUGAGGAUCACCCAUGUGAGGAUAUAGGUGUAUGCUAAAAAAAGUUAACAACUAGAAGGCACAGAGG [JR_Exc001_Sub308]	0.0557 µM	0.129 µM
CUCAAGUAAGGAUAUCCAAGAAAAGAAGAGAAAGAAAAGAAGGAGAAGGUACAUGAGGAUCACCCAUGUAAGAA [EteRNA is fun!]	0.0287 µM	0.0237 µM
CUCAAGUGAGGAUAUCAGUAGUAAAAAAAUAAAAUUACUACUGAGAAGGCACAUGAGGAUCACCCAUGUUCCAA [EX4 342: Super Stable 42]	0.124 µM	0.181 µM
CUCAUGUCAGGAUAUAGCCACAUGAGGAUCACCCAUGUGGACUAGAAGGGACAUGAGGAUCACCCAUGUAUGAA	0.011 µM	0.0113 µM
CUCUAGUCAGGAUAUCCAAGAAAAGAAGAGAAAGAAAAGAAGGAGAAGGGACAUGAGGAUCACCCAUGUAAGAA [EteRNA is fun!]	0.0759 µM	0.0464 µM
CUCUUGUAAGGAUAUGACUACAUAAAAAAAAAAAAAUGUAGUCAGAAGGUACAUGAGGAUCACCCAUGUACUAA [Brourd - Exclusion 4 - Sub 2]	0.0208 µM	0.0262 µM
